Data as given in patent publication US20050186649 (published 2005).

B1: human plasmin (protein)
chain: KVYLSECKTGNGKNYRGTMSKTKNGITCQKWSSTSPHRPRFSPATHPSEGLEENYCRNPDNDPQGPWCYTTDPEKRYDYCDILECEEECMHCSGENYDGKISKTMSGLECQAWDSQSPHAHGYIPSKFPNKNLKKNYCRNPDRELRPWCFTTDPNKRWELCDIPRCTTPPPSSGPTYQCLKGTGENYRGNVAVTVSGHTCQHWSAQTPHTHNRTPENFPCKNLDENYCRNPDGKRAPWCHTTNSQVRWEYCKIPSCDSSPVSTEQLAPTAPPELTPVVQDCYHGDGQSYRGTSSTTTTGKKCQSWSSMTPHRHQKTPENYPNAGLTMNYCRNPDADKGPWCFTTDPSVRWEYCNLKKCSGTEASVVAPPPVVLLPDVETPSEEDCMFGNGKGYRGKRATTVTGTPCQDWAAQEPHRHSIFTPETNPRAGLEKNYCRNPDGDVGGPWCYTTNPRKLYDYCDVPQCAAPSFDCGKPQVEPKKCPGRVVGGCVAHPHSWPWQVSLRTRFGMHFCGGTLISPEWVLTAAHCLEKSPRPSSYKVILGAHQEVNLEPHVQEIEVSRLFLEPTRKDIALLKLSSPAVITDKVIPACLPSPNYVVADRTECFITGWGETQGTFGAGLLKEAQLPVIENKVCNRYEFLNGRVQSTELCAGHLAGGTDSCQGDSGGPLVCFEKDKYILQGVTSWGLGCARPNKPGVYVRVSRFVTWIEGVMRNN

The binders below were run against BPTI (Bos taurus).

Kd [nM]	Binder
0.3	B1

Biological target: B1

Kd [nM]	Binder
0.088	SPI11 (protein) MHSFCAFKAETGPCRARFDRWFFNIFTRQCEEFIYGGCEGNQNRFESLEECKKMCTRD
> 4	SPI54 (protein) MHSFCAFKADSGPCRARFDRWFFNIFTRQCTRFPYGGCGGNQNRFESLEECKKMCTRD
> 2	SPI22 (protein) MHSFCAFKADGGPCKGKFPRFFFNIFTRQCEEFIYGGCEGNQNRFESLEECKKMCTRD
~0.8	SPI47 (protein) MHSFCAFKADAGPCRAKFERFFFNIFTRQCEEFIYGGCEGNQNRFESLEECKKMCTRD
~0.5	SPI23 (protein) MHSFCAFKAEGGPCRAKFQRWFFNIFTRQCEEFIYGGCEGNQNRFESLEECKKMCTRD
> 4	SPI43 (protein) MHSFCAFKAETGPCRGKFDRWFFNIFTRQCESFHYGGCKGNQNRFESLEECKKMCTRD
2	QS4 (protein) MHSFCAFKADDGPCKARFERFFFNIFTRQCEQFYYGGCDGNQNRFESLEECKKMCTRD
~0.5	SPI51 (protein) MHSFCAFKADAGPCRAKFERFFFNIFTRQCTAFFYGGCGGNQNRFESLEECKKMCTRD

Biological target: B1
Remark: another data set of the same source

Ki [nM]	Binder
0.088	SPI11 (protein) MHSFCAFKAETGPCRARFDRWFFNIFTRQCEEFIYGGCEGNQNRFESLEECKKMCTRD
